Measurements from paper doi:10.1101/2024.09.20.614047, “The Role of ATP Synthase Subunit e (ATP5I) in Mediating the Metabolic and Antiproliferative Effects of Metformin” (bioRxiv, 2024).

Target: the molecule itself
Assay: SEC; gel filtration of purified rATP5I (Superose 12 10/300 GL in legend B; calibrated Superose 6 10/300 GL in legend C); oligomeric state of the protein in solution

B1: recombinant purified ATP5I (ATP synthase subunit e), N-terminal 6x-His-tagged (natural protein, human, UniProt P56385 1-69, looked up)
chain: MVPPVQVSPLIKLGRYSALFLGVAYGATRYNYLKPRAEEERRIAAEEKKKQDELKRIARELAEDDSILK
notes: No cleavage of the His tag is described; the gel filtration legend names the Nter-6×His-ATP5I construct; also called rATP5I; recombinant ATP5I; source: Rosetta E. coli BL21, purified (solubilised in 6 M guanidine, HisTrap FF, desalting column, concentrated); not shown: 6x-His, N-terminal, kept
Question: B1 was tested. Which “stoichiometry N” value did it give?
Answer: ~10
